Test results reported in the Human Domainome abundance scans (Beltran et al. 2025).
± gives the uncertainty stated by the source.

B1: PDZ and LIM domain protein 2, residues 284 to 339; numbered along this chain, Q96JY6 (parent)
chain: HTCEKCSTSIANQAVRIQEGRYRHPGCYTCADCGLNLKMRGHFWVGDELYCEKHAR

Variants of: B1
Experiment: abundance fitness (aPCA) (normalised: wild type 0, dead -1); higher = more abundant; growth selection in yeast, the domain comes from the species named
Conditions: Homo sapiens

| Variant | abundance fitness |
| --- | --- |
| HTCEKCSWSIANQAVRIQEGRYRHPGCYTCADCGLNLKMRGHFWVGDELYCEKHAR [T8W] | -0.068 ± 0.069 |
| HTCEKCSISIANQAVRIQEGRYRHPGCYTCADCGLNLKMRGHFWVGDELYCEKHAR [T8I] | -0.361 ± 0.15 |
| HTCEKCSFSIANQAVRIQEGRYRHPGCYTCADCGLNLKMRGHFWVGDELYCEKHAR [T8F] | -0.111 ± 0.15 |
| HTCEVCSTSIANQAVRIQEGRYRHPGCYTCADCGLNLKMRGHFWVGDELYCEKHAR [K5V] | 0.055 ± 0.074 |
| HTCERCSTSIANQAVRIQEGRYRHPGCYTCADCGLNLKMRGHFWVGDELYCEKHAR [K5R] | 0.261 ± 0.079 |
| HTCEYCSTSIANQAVRIQEGRYRHPGCYTCADCGLNLKMRGHFWVGDELYCEKHAR [K5Y] | 0.508 ± 0.14 |
| HTCEWCSTSIANQAVRIQEGRYRHPGCYTCADCGLNLKMRGHFWVGDELYCEKHAR [K5W] | -0.553 ± 0.18 |
| HTCETCSTSIANQAVRIQEGRYRHPGCYTCADCGLNLKMRGHFWVGDELYCEKHAR [K5T] | 0.104 ± 0.13 |
| HTCENCSTSIANQAVRIQEGRYRHPGCYTCADCGLNLKMRGHFWVGDELYCEKHAR [K5N] | 0.269 ± 0.16 |
| HTCESCSTSIANQAVRIQEGRYRHPGCYTCADCGLNLKMRGHFWVGDELYCEKHAR [K5S] | -0.108 ± 0.096 |
| HTCEPCSTSIANQAVRIQEGRYRHPGCYTCADCGLNLKMRGHFWVGDELYCEKHAR [K5P] | -0.267 ± 0.16 |
| HTCEQCSTSIANQAVRIQEGRYRHPGCYTCADCGLNLKMRGHFWVGDELYCEKHAR [K5Q] | 0.165 ± 0.12 |
| HTCEMCSTSIANQAVRIQEGRYRHPGCYTCADCGLNLKMRGHFWVGDELYCEKHAR [K5M] | -0.05 ± 0.083 |
| HTCEKGSTSIANQAVRIQEGRYRHPGCYTCADCGLNLKMRGHFWVGDELYCEKHAR [C6G] | -0.437 ± 0.093 |
| HTCEKRSTSIANQAVRIQEGRYRHPGCYTCADCGLNLKMRGHFWVGDELYCEKHAR [C6R] | -0.266 ± 0.096 |
| HTCEKASTSIANQAVRIQEGRYRHPGCYTCADCGLNLKMRGHFWVGDELYCEKHAR [C6A] | -0.408 ± 0.14 |
| HTCEKISTSIANQAVRIQEGRYRHPGCYTCADCGLNLKMRGHFWVGDELYCEKHAR [C6I] | -0.135 ± 0.32 |
| HTCEKESTSIANQAVRIQEGRYRHPGCYTCADCGLNLKMRGHFWVGDELYCEKHAR [C6E] | -0.382 ± 0.17 |
| HTCEKDSTSIANQAVRIQEGRYRHPGCYTCADCGLNLKMRGHFWVGDELYCEKHAR [C6D] | -0.15 ± 0.22 |
| HTCEKHSTSIANQAVRIQEGRYRHPGCYTCADCGLNLKMRGHFWVGDELYCEKHAR [C6H] | -0.535 ± 0.19 |
| HTCEKKSTSIANQAVRIQEGRYRHPGCYTCADCGLNLKMRGHFWVGDELYCEKHAR [C6K] | -0.264 ± 0.19 |
| HTCEKYSTSIANQAVRIQEGRYRHPGCYTCADCGLNLKMRGHFWVGDELYCEKHAR [C6Y] | -0.743 ± 0.099 |
| HTCEKMSTSIANQAVRIQEGRYRHPGCYTCADCGLNLKMRGHFWVGDELYCEKHAR [C6M] | -0.523 ± 0.13 |
| HTCEKVSTSIANQAVRIQEGRYRHPGCYTCADCGLNLKMRGHFWVGDELYCEKHAR [C6V] | -0.282 ± 0.09 |

| Variant | abundance fitness |
| --- | --- |
| HTCEKLSTSIANQAVRIQEGRYRHPGCYTCADCGLNLKMRGHFWVGDELYCEKHAR [C6L] | -0.597 ± 0.082 |
| HTCEKWSTSIANQAVRIQEGRYRHPGCYTCADCGLNLKMRGHFWVGDELYCEKHAR [C6W] | -0.872 ± 0.12 |
| HTCEKQSTSIANQAVRIQEGRYRHPGCYTCADCGLNLKMRGHFWVGDELYCEKHAR [C6Q] | -0.199 ± 0.16 |
| HTCEKNSTSIANQAVRIQEGRYRHPGCYTCADCGLNLKMRGHFWVGDELYCEKHAR [C6N] | -0.508 ± 0.17 |
| HTCEKFSTSIANQAVRIQEGRYRHPGCYTCADCGLNLKMRGHFWVGDELYCEKHAR [C6F] | -0.667 ± 0.24 |
| HTCEKPSTSIANQAVRIQEGRYRHPGCYTCADCGLNLKMRGHFWVGDELYCEKHAR [C6P] | -0.336 ± 0.2 |
| HTCEKTSTSIANQAVRIQEGRYRHPGCYTCADCGLNLKMRGHFWVGDELYCEKHAR [C6T] | -0.48 ± 0.17 |
| HTCEKCSTSRANQAVRIQEGRYRHPGCYTCADCGLNLKMRGHFWVGDELYCEKHAR [I10R] | -0.445 ± 0.075 |
| HTCEKCSTSNANQAVRIQEGRYRHPGCYTCADCGLNLKMRGHFWVGDELYCEKHAR [I10N] | -0.119 ± 0.064 |
| HTCEKCSTSVANQAVRIQEGRYRHPGCYTCADCGLNLKMRGHFWVGDELYCEKHAR [I10V] | -0.187 ± 0.057 |
| HTCEKCSTSLANQAVRIQEGRYRHPGCYTCADCGLNLKMRGHFWVGDELYCEKHAR [I10L] | -0.413 ± 0.066 |
| HTCEKCSTSHANQAVRIQEGRYRHPGCYTCADCGLNLKMRGHFWVGDELYCEKHAR [I10H] | -0.735 ± 0.17 |
| HTCEKCSTSTANQAVRIQEGRYRHPGCYTCADCGLNLKMRGHFWVGDELYCEKHAR [I10T] | -0.14 ± 0.15 |
| HTCEKCSTSMANQAVRIQEGRYRHPGCYTCADCGLNLKMRGHFWVGDELYCEKHAR [I10M] | -0.425 ± 0.092 |
| HTCEKCSTSDANQAVRIQEGRYRHPGCYTCADCGLNLKMRGHFWVGDELYCEKHAR [I10D] | -0.041 ± 0.11 |
| HTCEKCSTSCANQAVRIQEGRYRHPGCYTCADCGLNLKMRGHFWVGDELYCEKHAR [I10C] | -0.062 ± 0.09 |
| HTCEKCSTSEANQAVRIQEGRYRHPGCYTCADCGLNLKMRGHFWVGDELYCEKHAR [I10E] | 0.006 ± 0.099 |
| HTCEKCSTSQANQAVRIQEGRYRHPGCYTCADCGLNLKMRGHFWVGDELYCEKHAR [I10Q] | -0.242 ± 0.083 |
| HTCEKCSTSYANQAVRIQEGRYRHPGCYTCADCGLNLKMRGHFWVGDELYCEKHAR [I10Y] | -0.809 ± 0.21 |
| HTCEKCSTSWANQAVRIQEGRYRHPGCYTCADCGLNLKMRGHFWVGDELYCEKHAR [I10W] | -0.488 ± 0.14 |
| HTCEKCSTSSANQAVRIQEGRYRHPGCYTCADCGLNLKMRGHFWVGDELYCEKHAR [I10S] | -0.505 ± 0.08 |
| HTCEKCSTSGANQAVRIQEGRYRHPGCYTCADCGLNLKMRGHFWVGDELYCEKHAR [I10G] | -0.312 ± 0.062 |
| HTCEKCSTSKANQAVRIQEGRYRHPGCYTCADCGLNLKMRGHFWVGDELYCEKHAR [I10K] | -0.488 ± 0.13 |
